These results are taken from article PMC5445078, “Probing the Roles of Calcium-Binding Sites during the Folding of Human Peptidylarginine Deiminase 4” (Scientific Reports, 2017).

B1: human PAD4 Ca4_site mutant (D155A/D157A/D179A/D388A) (enzyme, UniProt Q9UM07 1-663, looked up)
chain: MAQGTLIRVTPEQPTHAVCVLGTLTQLDICSSAPEDCTSFSINASPGVVVDIAHGPPAKKKSTGSSTWPLDPGVEVTLTMKVASGSTGDQKVQISYYGPKTPPVKALLYLTGVEISLCADITRTGKVKPTRAVKDQRTWTWGPCGQGAILLVNCARANLESSAMDCEDDEVLDSEDLQAMSLMTLSTKTPKDFFTNHTLVLHVARSEMDKVRVFQATRGKLSSKCSVVLGPKWPSHYLMVPGGKHNMDFYVEALAFPDTDFPGLITLTISLLDTSNLELPEAVVFQDSVVFRVAPWIMTPNTQPPQEVYACSIFENEDFLKSVTTLAMKAKCKLTICPEEENMDDQWMQDEMEIGYIQAPHKTLPVVFDSPRNRGLKEFPIKRVMGPAFGYVTRGPQTGGISGLDSFGNLEVSPPVTVRGKEYPLGRILFGDSCYPSNDSRQMHQALQDFLSAQQVQAPVKLYSDWLSVGHVDEFLSFVPAPDRKGFRLLLASPRSCYKLFQEQQNEGHGEALLFEGIKKKKQQKIKNILSNKTLREHNSFVERCIDWNRELLKRELGLAESDIIDIPQLFKLKEFSKAEAFFPNMVNMLVLGKHLGIPKPFGPVINGRCCLEEKVCSLLEPLGLQCTFINDFFTYHIRHGEVHCGTNVRRKPFSFKWWNMVP
notes: source: E. coli JM109, purified (Ni-NTA)
B2: human PAD4 Ca3_site mutant (N153A/D155A/D157A/D165A/D176A/D179A) (enzyme, UniProt Q9UM07 1-663, looked up)
chain: MAQGTLIRVTPEQPTHAVCVLGTLTQLDICSSAPEDCTSFSINASPGVVVDIAHGPPAKKKSTGSSTWPLDPGVEVTLTMKVASGSTGDQKVQISYYGPKTPPVKALLYLTGVEISLCADITRTGKVKPTRAVKDQRTWTWGPCGQGAILLVACARANLESSAMACEDDEVLDSEALQAMSLMTLSTKTPKDFFTNHTLVLHVARSEMDKVRVFQATRGKLSSKCSVVLGPKWPSHYLMVPGGKHNMDFYVEALAFPDTDFPGLITLTISLLDTSNLELPEAVVFQDSVVFRVAPWIMTPNTQPPQEVYACSIFENEDFLKSVTTLAMKAKCKLTICPEEENMDDQWMQDEMEIGYIQAPHKTLPVVFDSPRNRGLKEFPIKRVMGPDFGYVTRGPQTGGISGLDSFGNLEVSPPVTVRGKEYPLGRILFGDSCYPSNDSRQMHQALQDFLSAQQVQAPVKLYSDWLSVGHVDEFLSFVPAPDRKGFRLLLASPRSCYKLFQEQQNEGHGEALLFEGIKKKKQQKIKNILSNKTLREHNSFVERCIDWNRELLKRELGLAESDIIDIPQLFKLKEFSKAEAFFPNMVNMLVLGKHLGIPKPFGPVINGRCCLEEKVCSLLEPLGLQCTFINDFFTYHIRHGEVHCGTNVRRKPFSFKWWNMVP
notes: as for B1
B3: human PAD4 Ca2_site mutant (E351A/D369A/N373A) (enzyme, UniProt Q9UM07 1-663, looked up)
chain: MAQGTLIRVTPEQPTHAVCVLGTLTQLDICSSAPEDCTSFSINASPGVVVDIAHGPPAKKKSTGSSTWPLDPGVEVTLTMKVASGSTGDQKVQISYYGPKTPPVKALLYLTGVEISLCADITRTGKVKPTRAVKDQRTWTWGPCGQGAILLVNCDRDNLESSAMDCEDDEVLDSEDLQDMSLMTLSTKTPKDFFTNHTLVLHVARSEMDKVRVFQATRGKLSSKCSVVLGPKWPSHYLMVPGGKHNMDFYVEALAFPDTDFPGLITLTISLLDTSNLELPEAVVFQDSVVFRVAPWIMTPNTQPPQEVYACSIFENEDFLKSVTTLAMKAKCKLTICPEEENMDDQWMQDAMEIGYIQAPHKTLPVVFASPRARGLKEFPIKRVMGPDFGYVTRGPQTGGISGLDSFGNLEVSPPVTVRGKEYPLGRILFGDSCYPSNDSRQMHQALQDFLSAQQVQAPVKLYSDWLSVGHVDEFLSFVPAPDRKGFRLLLASPRSCYKLFQEQQNEGHGEALLFEGIKKKKQQKIKNILSNKTLREHNSFVERCIDWNRELLKRELGLAESDIIDIPQLFKLKEFSKAEAFFPNMVNMLVLGKHLGIPKPFGPVINGRCCLEEKVCSLLEPLGLQCTFINDFFTYHIRHGEVHCGTNVRRKPFSFKWWNMVP
notes: as for B1
B4: human PAD4 Ca1_site mutant (Q349A/E353A/E411A) (enzyme, UniProt Q9UM07 1-663, looked up)
chain: MAQGTLIRVTPEQPTHAVCVLGTLTQLDICSSAPEDCTSFSINASPGVVVDIAHGPPAKKKSTGSSTWPLDPGVEVTLTMKVASGSTGDQKVQISYYGPKTPPVKALLYLTGVEISLCADITRTGKVKPTRAVKDQRTWTWGPCGQGAILLVNCDRDNLESSAMDCEDDEVLDSEDLQDMSLMTLSTKTPKDFFTNHTLVLHVARSEMDKVRVFQATRGKLSSKCSVVLGPKWPSHYLMVPGGKHNMDFYVEALAFPDTDFPGLITLTISLLDTSNLELPEAVVFQDSVVFRVAPWIMTPNTQPPQEVYACSIFENEDFLKSVTTLAMKAKCKLTICPEEENMDDQWMADEMAIGYIQAPHKTLPVVFDSPRNRGLKEFPIKRVMGPDFGYVTRGPQTGGISGLDSFGNLAVSPPVTVRGKEYPLGRILFGDSCYPSNDSRQMHQALQDFLSAQQVQAPVKLYSDWLSVGHVDEFLSFVPAPDRKGFRLLLASPRSCYKLFQEQQNEGHGEALLFEGIKKKKQQKIKNILSNKTLREHNSFVERCIDWNRELLKRELGLAESDIIDIPQLFKLKEFSKAEAFFPNMVNMLVLGKHLGIPKPFGPVINGRCCLEEKVCSLLEPLGLQCTFINDFFTYHIRHGEVHCGTNVRRKPFSFKWWNMVP
notes: as for B1
B5: PAD4 Ca1_site mutant (Q349A/E353A/E411A) (enzyme, human, UniProt Q9UM07 1-663, looked up)
chain: MAQGTLIRVTPEQPTHAVCVLGTLTQLDICSSAPEDCTSFSINASPGVVVDIAHGPPAKKKSTGSSTWPLDPGVEVTLTMKVASGSTGDQKVQISYYGPKTPPVKALLYLTGVEISLCADITRTGKVKPTRAVKDQRTWTWGPCGQGAILLVNCDRDNLESSAMDCEDDEVLDSEDLQDMSLMTLSTKTPKDFFTNHTLVLHVARSEMDKVRVFQATRGKLSSKCSVVLGPKWPSHYLMVPGGKHNMDFYVEALAFPDTDFPGLITLTISLLDTSNLELPEAVVFQDSVVFRVAPWIMTPNTQPPQEVYACSIFENEDFLKSVTTLAMKAKCKLTICPEEENMDDQWMADEMAIGYIQAPHKTLPVVFDSPRNRGLKEFPIKRVMGPDFGYVTRGPQTGGISGLDSFGNLAVSPPVTVRGKEYPLGRILFGDSCYPSNDSRQMHQALQDFLSAQQVQAPVKLYSDWLSVGHVDEFLSFVPAPDRKGFRLLLASPRSCYKLFQEQQNEGHGEALLFEGIKKKKQQKIKNILSNKTLREHNSFVERCIDWNRELLKRELGLAESDIIDIPQLFKLKEFSKAEAFFPNMVNMLVLGKHLGIPKPFGPVINGRCCLEEKVCSLLEPLGLQCTFINDFFTYHIRHGEVHCGTNVRRKPFSFKWWNMVP
notes: human peptidylarginine deiminase 4 (PAD4), cDNA cloned into pQE30; source: E. coli JM109, purified (Ni-NTA)
B6: PAD4 Ca4_site mutant (D155A/D157A/D179A/D388A) (enzyme, human, UniProt Q9UM07 1-663, looked up)
chain: MAQGTLIRVTPEQPTHAVCVLGTLTQLDICSSAPEDCTSFSINASPGVVVDIAHGPPAKKKSTGSSTWPLDPGVEVTLTMKVASGSTGDQKVQISYYGPKTPPVKALLYLTGVEISLCADITRTGKVKPTRAVKDQRTWTWGPCGQGAILLVNCARANLESSAMDCEDDEVLDSEDLQAMSLMTLSTKTPKDFFTNHTLVLHVARSEMDKVRVFQATRGKLSSKCSVVLGPKWPSHYLMVPGGKHNMDFYVEALAFPDTDFPGLITLTISLLDTSNLELPEAVVFQDSVVFRVAPWIMTPNTQPPQEVYACSIFENEDFLKSVTTLAMKAKCKLTICPEEENMDDQWMQDEMEIGYIQAPHKTLPVVFDSPRNRGLKEFPIKRVMGPAFGYVTRGPQTGGISGLDSFGNLEVSPPVTVRGKEYPLGRILFGDSCYPSNDSRQMHQALQDFLSAQQVQAPVKLYSDWLSVGHVDEFLSFVPAPDRKGFRLLLASPRSCYKLFQEQQNEGHGEALLFEGIKKKKQQKIKNILSNKTLREHNSFVERCIDWNRELLKRELGLAESDIIDIPQLFKLKEFSKAEAFFPNMVNMLVLGKHLGIPKPFGPVINGRCCLEEKVCSLLEPLGLQCTFINDFFTYHIRHGEVHCGTNVRRKPFSFKWWNMVP
notes: as for B5
B7: PAD4 Ca3_site mutant (N153A/D155A/D157A/D165A/D176A/D179A) (enzyme, human, UniProt Q9UM07 1-663, looked up)
chain: MAQGTLIRVTPEQPTHAVCVLGTLTQLDICSSAPEDCTSFSINASPGVVVDIAHGPPAKKKSTGSSTWPLDPGVEVTLTMKVASGSTGDQKVQISYYGPKTPPVKALLYLTGVEISLCADITRTGKVKPTRAVKDQRTWTWGPCGQGAILLVACARANLESSAMACEDDEVLDSEALQAMSLMTLSTKTPKDFFTNHTLVLHVARSEMDKVRVFQATRGKLSSKCSVVLGPKWPSHYLMVPGGKHNMDFYVEALAFPDTDFPGLITLTISLLDTSNLELPEAVVFQDSVVFRVAPWIMTPNTQPPQEVYACSIFENEDFLKSVTTLAMKAKCKLTICPEEENMDDQWMQDEMEIGYIQAPHKTLPVVFDSPRNRGLKEFPIKRVMGPDFGYVTRGPQTGGISGLDSFGNLEVSPPVTVRGKEYPLGRILFGDSCYPSNDSRQMHQALQDFLSAQQVQAPVKLYSDWLSVGHVDEFLSFVPAPDRKGFRLLLASPRSCYKLFQEQQNEGHGEALLFEGIKKKKQQKIKNILSNKTLREHNSFVERCIDWNRELLKRELGLAESDIIDIPQLFKLKEFSKAEAFFPNMVNMLVLGKHLGIPKPFGPVINGRCCLEEKVCSLLEPLGLQCTFINDFFTYHIRHGEVHCGTNVRRKPFSFKWWNMVP
notes: as for B5
B8: PAD4 Ca2_site mutant (E351A/D369A/N373A) (enzyme, human, UniProt Q9UM07 1-663, looked up)
chain: MAQGTLIRVTPEQPTHAVCVLGTLTQLDICSSAPEDCTSFSINASPGVVVDIAHGPPAKKKSTGSSTWPLDPGVEVTLTMKVASGSTGDQKVQISYYGPKTPPVKALLYLTGVEISLCADITRTGKVKPTRAVKDQRTWTWGPCGQGAILLVNCDRDNLESSAMDCEDDEVLDSEDLQDMSLMTLSTKTPKDFFTNHTLVLHVARSEMDKVRVFQATRGKLSSKCSVVLGPKWPSHYLMVPGGKHNMDFYVEALAFPDTDFPGLITLTISLLDTSNLELPEAVVFQDSVVFRVAPWIMTPNTQPPQEVYACSIFENEDFLKSVTTLAMKAKCKLTICPEEENMDDQWMQDAMEIGYIQAPHKTLPVVFASPRARGLKEFPIKRVMGPDFGYVTRGPQTGGISGLDSFGNLEVSPPVTVRGKEYPLGRILFGDSCYPSNDSRQMHQALQDFLSAQQVQAPVKLYSDWLSVGHVDEFLSFVPAPDRKGFRLLLASPRSCYKLFQEQQNEGHGEALLFEGIKKKKQQKIKNILSNKTLREHNSFVERCIDWNRELLKRELGLAESDIIDIPQLFKLKEFSKAEAFFPNMVNMLVLGKHLGIPKPFGPVINGRCCLEEKVCSLLEPLGLQCTFINDFFTYHIRHGEVHCGTNVRRKPFSFKWWNMVP
notes: as for B5

One series concerns the molecule itself. The experiment in a line: AUC; sedimentation velocity, 20 °C, 42,000 rpm, absorbance at 280 nm, SEDFIT continuous size distribution; no urea, 10 mM Ca2+, 50 mM Tris-HCl pH 7.4; dimer to monomers.
Usually stoichiometry N stands for a count of units in the complex or per binding partner. Consider B1, for which the “stoichiometry N” value turned out to be 2.
The same measure, in the same setting: the figure for B2 is 2; for B3 it is 2; for B4 it is 2.

In the next series the target is human PAD4 Ca5_site mutant (D168A/E252A) (human) (UniProt Q9UM07). The series is described as above.
The molecule “human PAD4 Ca5_site mutant (D168A/E252A) (from UniProt Q9UM07 1-663) (enzyme)” came in with a stoichiometry N of 2.

The next series deals with the molecule itself. The experiment in a line: AUC; sedimentation velocity at three protein concentrations (0.1, 0.3 and 0.9 mg/ml), globally fit with SEDPHAT; dimer to monomers.
The Kd is a measure of binding affinity in units of concentration. Low values mean a tighter complex, high ones a looser complex. Regarding B5, binding was characterised by a dissociation constant (Kd) of 160 ± 1 nM.
On the same count and under the same terms, then B6, with 410 ± 4 nM; and B7, with 160 ± 1 nM.
Turning to B8, the Kd is 150 ± 1 nM.
